Consider six proteins from FireProtDB.

Where “and” joins values, the source holds several entries; their conditions need not be identical. Equal values may be shown once.

For this data set the following is noted: whole UniProt chain shown.
Where [1] appears, read: Drosophila melanogaster, pH 6, 5 °C, GdnHCl, CD, sodium phosphate 50 mM, reversible: yes.
Where [2] appears, read: Drosophila melanogaster, pH 6, 5 °C, GdnHCl, Fluorescence, sodium phosphate 50 mM, Na2SO4 0.4 M, reversible: yes.
[3] abbreviates: Drosophila melanogaster, pH 6, Thermal, CD, sodium phosphate 50 mM, Na2SO4 0.4 M, reversible: yes.
Setting [4] is: Bos taurus, pH 7, 25 °C, GdnHCl, Absorbance, MOPS 30 mM, reversible: yes.
The mark [5] stands for this setting: Bos taurus, pH 7, 25 °C, GdnHCl, Fluorescence, MOPS 30 mM, reversible: yes.
The mark [6] stands for this setting: Bos taurus, pH 7, 25 °C, GdnSCN, Fluorescence, MOPS 30 mM, reversible: YES.
The mark [7] stands for this setting: Bos taurus, pH 7.2, 25 °C, Urea, CD, Phosphate 20 mM, reversible: yes.
The mark [8] stands for this setting: Bos taurus, pH 7.4, Thermal, DSC, sodium phosphate 50 mM, reversible: yes.
The mark [9] stands for this setting: Bos taurus, pH 7.5, 25 °C, Urea, CD, Tris-HCl 20 mM, reversible: yes.
Setting [10] is: Bos taurus, pH 9, 25 °C, Urea, CD, Tris-HCl 20 mM, reversible: yes.
Where [11] appears, read: Bos taurus, pH 6.8, 27 °C, GdnHCl, Absorbance, Sodium phosphate 50 mM, NaCl 50 mM, reversible: no.
[12] abbreviates: Bos taurus, pH 7.2, Thermal, DSC, phosphate 20 mM, transition: 3, reversible: no.

B1: Lysozyme C wild type, P00708 (protein)
chain: KDIPRCELVKILRRHGFEGFVGKTVANWVCLVKHESGYRTTAFNNNGPNSRDYGIFQINSKYWCNDGKTRGSKNACNINCSKLRDDNIADDIQCAKKIAREARGLTPWVAWKKYCQGKDLSSYVRGC
Take B1: the Tm (Columba livia, pH 6, Thermal, CD, MES 50 mM, potassium chloride 100 mM, transition: 3) stood at 70 °C.

B2: Growth factor receptor-bound protein 2 wild type, Q08012 (protein)
chain: MEAIAKHDFSATADDELSFRKTQILKILNMEDDSNWYRAELDGKEGLIPSNYIEMKNHDWYYGRITRADAEKLLSNKHEGAFLIRISESSPGDFSLSVKCPDGVQHFKVLRDAQSKFFLWVVKFNSLNELVEYHRTASVSRSQDVKLRDMIPEEMLVQALYDFVPQESGELDFRRGDVITVTDRSDENWWNGEIGNRKGIFPATYVTPYHS
As to B2, under setting [1], the denaturant m value is 3.48 kcal/mol/M and the unfolding free energy amounted to 1.47 kcal/mol. Also, under setting [2], the denaturant m value is 1.39 kcal/mol/M and the unfolding free energy was found to be 2.18 kcal/mol. Moreover, under setting [3], the Tm stood at 60.1 °C and the “unfolding enthalpy (van 't Hoff)” value was 33.1 kcal/mol.

B3: Cytochrome b5 wild type, P00171 (protein)
chain: MAEESSKAVKYYTLEEIQKHNNSKSTWLILHYKVYDLTKFLEEHPGGEEVLREQAGGDATENFEDVGHSTDARELSKTFIIGELHPDDRSKITKPSESIITTIDSNPSWWTNWLIPAISALFVALIYHLYTSEN
With B3, the unfolding free energy by setting is: (Bos taurus, pH 7, 10 °C, GdnHCl, Fluorescence, MOPS 30 mM, reversible: yes) 2.77 kcal/mol; under setting [4], 6.57 kcal/mol; under setting [5], 6.09 kcal/mol; under setting [6], 3.2 kcal/mol and 2.7 kcal/mol; (Bos taurus, pH 7, 25 °C, Thermal, DSC, sodium phosphate 50 mM, reversible: yes) 5.98 kcal/mol; under setting [7], 6.57 kcal/mol. For the same protein, the “denaturant midpoint (higher = more stable)” value by setting is: (Bos taurus, pH 7, 25 °C, GdmSCN, UV/visible spectrophotometer, MOPS 30mM) 1.52 M; under setting [4], 3.05 M; under setting [5], 2.99 M. For the same protein, the denaturant m value is 2.14 kcal/mol/M under setting [4]; 2.05 kcal/mol/M under setting [5]; 2.4 kcal/mol/M and 1.7 kcal/mol/M under setting [6]; 0.93 kcal/mol/M under setting [7]. Besides, the Tm was found to be 85.5 °C (Bos taurus, pH 7, Thermal, Fluorescence, potassium phosphate 50 mM, reversible: YES); 79.4 °C (Bos taurus, pH 7, Thermal, UV spectroscopy, Sodium phosphate 50 mM, reversible: Yes); 67.6 °C (Bos taurus, pH 7, Thermal, UV/visible spectrophotometer, Potassium phosphate 50mM); 70.7 °C under setting [8]. The “unfolding enthalpy (van 't Hoff)” value (Bos taurus, pH 7.2, Thermal, Absorbance, Phosphate 20 mM, reversible: yes) was 82.5 kcal/mol and 33.9 kcal/mol. Besides, the “heat capacity change of unfolding” value under setting [8] worked out at 0.13 kcal/mol/K.

B4: Pepsin A wild type, P00792 (protein)
chain: MSVVKIPLVKKKSLRQNLIENGKLKEFMRTHKYNLGSKYIREAATLVSEQPLQNYLDTEYFGTIGIGTPAQDFTVIFDTGSSNLWVPSIYCSSEACTNHNRFNPQDSSTYEATSETLSITYGTGSMTGILGYDTVQVGGISDTNQIFGLSETEPGSFLYYAPFDGILGLAYPSISSSGATPVFDNIWDQGLVSQDLFSVYLSSNEESGSVVIFGDIDSSYYSGSLNWVPVSVEGYWQITVDSITMNGESIACSDGCQAIVDTGTSLLAGPTTAISNIQSYIGASEDSSGEVVISCSSIDSLPDIVFTINGVQYPVPPSAYILQSNGICSSGFEGMDISTSSGDLWILGDVFIRQYFTVFDRGNNQIGLAPVA
For B4, the unfolding free energy by setting is: under setting [9], 6.36 kcal/mol; under setting [10], 2.72 kcal/mol.

B5: Chymosin wild type, P00794 (protein)
chain: MRCLVVLLAVFALSQGAEITRIPLYKGKSLRKALKEHGLLEDFLQKQQYGISSKYSGFGEVASVPLTNYLDSQYFGKIYLGTPPQEFTVLFDTGSSDFWVPSIYCKSNACKNHQRFDPRKSSTFQNLGKPLSIHYGTGSMQGILGYDTVTVSNIVDIQQTVGLSTQEPGDVFTYAEFDGILGMAYPSLASEYSIPVFDNMMNRHLVAQDLFSVYMDRNGQESMLTLGAIDPSYYTGSLHWVPVTVQQYWQFTVDSVTISGVVVACEGGCQAILDTGTSKLVGPSSDILNIQQAIGATQNQYGEFDIDCDNLSYMPTVVFEINGKMYPLTPSAYTSQDQGFCTSGFQSENHSQKWILGDVFIREYYSVFDRANNLVGLAKAI
Consider B5, for which the unfolding free energy under setting [9] was 6.45 kcal/mol; the unfolding free energy under setting [10] is 3.56 kcal/mol and 3.47 kcal/mol.

B6: Gamma-crystallin B wild type, P02526 (protein)
chain: MGKITFYEDRGFQGHCYECSSDCPNLQPYFSRCNSIRVDSGCWMLYERPNYQGHQYFLRRGDYPDYQQWMGFNDSIRSCRLIPQHTGTFRMRIYERDDFRGQMSEITDDCPSLQDRFHLTEVHSLNVLEGSWVLYEMPSYRGRQYLLRPGEYRRYLDWGAMNAKVGSLRRVMDFY
Regarding B6, under setting [11], the denaturant m value is 1.3 kcal/mol/M and 0.9 kcal/mol/M; the “denaturant midpoint (higher = more stable)” value was 3 M and 1.3 M. For the same protein, the “unfolding enthalpy (calorimetric)” value (Bos taurus, pH 7.2, Thermal, DSC, phosphate 20 mM, reversible: no) was 82.3 kcal/mol and 149 kcal/mol and 90 kcal/mol. Under setting [12], the “unfolding enthalpy (calorimetric)” value is 126 kcal/mol and 148 kcal/mol; the “unfolding enthalpy (van 't Hoff)” value was 110 kcal/mol and 71 kcal/mol.

In general, Tm refers to the temperature at the midpoint of the melting transition.
